The record followed here is patent US20130149320A1 (CENTRE NATIONAL DE LA RECHERCHE SCIENTIFIQUE, published 2013).

Ends that are not written are not given here.

The assay deals with T1, Asf1 from Xenopus laevis (endogenous, high speed egg extract) (Xenopus laevis, UniProt Q69DB9 1-201, limits assumed).
T1 construct: also called Asf1 from X. laevis
Kind of assay: GST pull-down on Xenopus egg extract (HSE), Western blot. The protocol: FIG. 22. Inhibition of chromatin assembly with the B-domain of HIRA. FIG. 22A Binding of the wild-type but not the mutated form (I461D) of the B-domain of HIRA to Asf1. GST pull-down was performed on HSE extracts with […] of recombinant GST B-domain of HIRA proteins on beads. Input and flowthrough are 10% of the immunoprecipitated material. […] FIG. 22B The B-domain of HIRA inhibits nucleosome assembly independent of replication. In vitro nucleosome assembly reactions independent of DNA synthesis were performed with increasing amounts (2, 4 or 8 mg) of the recombinant GST HIRA B-domain or its mutated form (I461D) added directly into the nucleosome assembly reaction mix. The purified plasmid DNA was analyzed by agarose elecrophoresis and was visualized by staining with ethidium bromide (EtBr). The migration positions of DNA plasmid form 1 (supercoiled), form 11 (nicked circular) and lr (closed circular) are indicated.
GST pull-downs were performed by mixing […] of High speed xenopus egg extract (HSE prepared as described in (Almouzni, 1998)), 1X nucleosome assembly buffer, 300 ng p^{bluescript}, 4 mM ATP, […] creatine kinase and 3 mg of recombinant protein on beads during 3 h at 23° C. The flow through was recovered and beads were washed 3 times with PBS supplemented with 150 mM NaCl and 0,5% NP40. Different fractions were loaded on a NuPAGE 4-12% (Invitrogen) and ran in MES buffer. […]

T1 sequence (Q69DB9 whole entry): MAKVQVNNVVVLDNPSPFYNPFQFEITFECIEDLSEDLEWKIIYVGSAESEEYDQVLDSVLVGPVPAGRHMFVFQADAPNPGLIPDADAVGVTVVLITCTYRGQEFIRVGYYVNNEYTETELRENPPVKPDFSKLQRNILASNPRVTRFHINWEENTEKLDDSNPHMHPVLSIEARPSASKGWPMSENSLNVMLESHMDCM

B1: recombinant GST HIRA B-domain I461D (mutated Xenopus laevis HIRA B-domain, aa 435-480) (other, not shown: a dimerising Fc or GST; small tags and cut ends)
chain: GESLEDIRKNLLKKQVETRTADGRRRDTPLCIAQLDTGDFSTAFFN
modifications: also: GST fusion tag, sequence not given here
notes: also called mutated GST-B-domain I461D; mutated form (I461D) of the B-domain of HIRA
With B1, the binding result is listed as “no binding (tested: 3 mg of recombinant protein on beads)”.
